Measurements reported in article PMC13391367 (Nature, 2025).
The star is where a group is joined. Biotin = O=C1N[C@H]2[C@H](CS[C@H]2CCCCC(=O)*)N1; fluorescein = fluorescein label

Target: T1, LENG8(283–346) (human, UniProt Q96PV6 283-346)
T1 construct: LENG8, human, residues 283–346 (conserved helical region N-terminal to the SAC3 domain); also called LENG8^283–346 WT; source: recombinant
T1 sequence (looked up): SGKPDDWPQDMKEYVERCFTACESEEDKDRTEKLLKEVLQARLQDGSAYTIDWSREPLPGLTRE
Assay: pull-down; biotinylated, fluorescein-labelled ZFC3H1 peptide (200 µg) on magnetic streptavidin beads; 15 μg LENG8(283–346) or its F301A mutant added, 60 min at 4 °C; 25 mM HEPES pH 7.9, 100 mM NaCl, 5% glycerol, 1 mM MgCl2, 1 mM TCEP, 0.01% Igepal CA-630; glycine pH 2.5 elution; Coomassie and fluorescein imaging
Details: both partners purified

binding result: binds
B1: Biotin-ZFC3H1^728–752 wild-type peptide, C-terminal fluorescein (peptide, UniProt O60293 728-752, looked up)
peptide: Biotin-NSVFGGLESMIKEARRTAEQASKPK-fluorescein
notes: ZFC3H1, human, residues 728–752; also called ZFC3H1 peptide WT
